Results taken from the DeepSol protein solubility set.

Experiment: soluble on expression in E. coli; label from the status in PepcDB or PDB records

Sequence | soluble on expression in E. coli
MGSDKIHHHHHHARPQEKIKKKEISQSYSVSAGDRLQVENRYGNITVTHWNQNTVAIRVEVECKARSEERAQENLDRIQIETKKIGGIVSAVTTIKKEMNSNSNNESMTINYYIQMPPKLAADLNQKYGNINLPSDNNGNMDIHVKYGNLNAGNFTANAMIEAKYGNIEVGNLQDAQLDLGYVGTAKIRNAKDLTIDSKYSNLDIQDIQSLRMEIKYGNLTIESVSRLDMEIKYSDAKIGTLKDALNVSSLSYSNLKIRNLSPSFSKVNVESHYGNLEVALPAKTSFRIVAENMKYSSCDVNGFNITRKHFDDEDRDKNYTYEINGGKQPTIHFEGNRYGNLKVKAN | not soluble
MGSDKIHHHHHHASSCGDECPVEQPYSVRVSVKDKNYLNISQFPQLSQVDENLPFRTYAGTLYYALYDASTGALIRESAVVSTEGEEKEYTLTFPGVPDGDYKLAVWGNLTTDYPAGILHQDGKEHTDIYVTSGDLHFSPDYQTEELTLERTKGKLLLLCSNFPSEITRIEQNVSHVYQSTDAGLNYSGSTQVDKNVPFTSVLETLLAPTSAEGHSKLTLTFYTGGTRASETPYLKLPVMEMDMRRNEITAVSIDYNTSEGIWEIKMFIRGEWITIHRLDIF | not soluble
MGSDKIHHHHHHAVNCYVGNYYRADSIAEAAIDSDREVAVTIEKKDKRIQATQYDLKLKNYTITFAPQDKEKATKALIFYPGGRVQYTAYAPLMHELAKNNFVCILVHMPGNLAVLDQNAADGIIEKYKEIYPSIQEWYMGGHSLGGAMAAEYVAKHVDEFDGLYLFAAYSTADLSDSDLRVFSVYGSEDGVLDMDKYRKYRSNLPEDTYEYVIDGGCHSYFGSYGLQKGDGTPDVAFEEQIEMTVDFITYNSK | not soluble
MGSDKIHHHHHHAVTTGNTPVTAEFAGGTLPDGNGVPNTVDPDPTKPNSNFDLLFIPREYDFGKLSISDDLTKPIPNKTDEGRAGNVESVGVGDIRGSKEGWHVTAQSTGMKLGEESLEGSITTGAMFLYPLIYNEETKTYDYQSADLADPVTKPETVDTTAFSIALGGDAVLLANATAGKGQGLWQFSFRPYLNITTPAYNIKAGAYTGNITWNLVAGPSI | not soluble
MGSDKIHHHHHHCKDDDTLLRGSGITEQSWSTNQTYFASAEQTLTFTFTTLSSWTAQNSSTALLSLDNTAGNSGENTIKVTVHKSSQEQGTITIKVNGYSSASNIKIQLSDDDVQGYEINYSVDQYLREKYLWNDDYKLLTPNFRQAYDEFLRNTLLSMTTNTLDKKRNSNGTYSLFSFIQKLDPDLQTSRSAKEKKTLEYNYGFVNFIAVGNRNNSNYGLVIQGVHKGSSADKEGLKRGMEITEIDNQRITTTNVQACYSKLIKPSSPTSIKVKDKDGKVYTINSGPIYANPIIHHQVNEKIGYLVYSAFESGFDQELFDVFKEFKSQNITELILDLRYNGGGDVTSANLISSCIAGDLCIDKTFASYRYNDERMKVLGNQRPIQKFAYSQYDNLSTSLSAGGLNLRKIYCLVTDDSASASELVINALRGIDIEVILIGTTTHGKNVGMEGVELTAGTDKYLLFPITFQAYNAKGFGDFENGFTPDYEINENKPNGEYFEGYGDFGAESDPLYAKAISLISGNEVTTPTRAVNQAKEQMLVIATPRLNRIGMIK | not soluble
MGSDKIHHHHHHCKPAARSVITESSLIFTSIHSSYVISTYYKRCVVLSQRKEAVQNMNVYQLKEELIEYAKSIGVDKIGFTTADTFDSLKDRLILQESLGYLSGFEEPDIEKRVTPKLLLPKAKSIVAIALAYPSRMKDAPRSTRTERRGIFCRASWGKDYHDVLREKLDLLEDFLKSKHEDIRTKSMVDTGELSDRAVAERAGIGFSAKNCMITTPEYGSYVYLAEMITNIPFEPDVPIEDMCGSCTKCLDACPTGALVNPGQLNAQRCISFLTQTKGFLPDEFRTKIGNRLYGCDTCQTVCPLNKGKDFHLHPEMEPDPEIAKPLLKPLLAISNREFKEKFGHVSGSWRGKKPIQRNAILALAHFKDASALPELTELMHKDPRPVIRGTAAWAIGKIGDPAYAEELEKALEKEKDEEAKLEIEKGIELLKASGMTKQGLS | not soluble
MGSDKIHHHHHHCSDDDSVNEWDMSYVSLLPADYLRPTPSFTLKHVEEEGIEGSVEFQFMATTQKAVTQDINVHYSVTCDGIDANKINLSAKNLLIKAGSTASEPITLSITDWKYLENTKEALEYTLKIKIADIESTSAEVTNAAYYQEIVLKISKTAEKKKESVLLTNVKDWIFTFMTGVENSASNSVAGTGTNDVATNGVPFWLTVDFKEVKNVTGVQTTHWGAGYAPSKVEIFSSENGDDWVSIGQWDTKGRTQTITFDERVKTRYLKYQMITVPSRVDITRFYIYAW | not soluble
MGSDKIHHHHHHDGKFTLGAGVGVVEHPYKQYDADVYPVPVISYESENFWFHGLGGGYYLWNDTNDKLSITAYWSPMYFKPGDSDSEQMRRLDKRKSTVMAGLSYVHNTPYGFLRTTIAGDTLDNSNGINWDLAWLYRYTNGNLTLTPGIGVEWNSDNQNEYYYGVSRHESRRSGMRSYDPDSSWNPYLELSANYRFLGDWSVYGVARYTRLSDEITDSPMVDKSWSGLISTGITYTF | not soluble
MGSDKIHHHHHHDGMGLSQVYLTSMLEGRPLSFMKTPYIGLVKTHSANSWVTDSAAAGTALASGFKTNNGMINILPDGTVVPTIFEVAKTYGVRTGIVVTCRVTHATPAAFYAHVKSRDEENEIARQLVENETVDVVMGGGWANFLPKDLGGKRDDNLNLIELAKEKGYIYVKTREELSKISADSDKILALFAPSHLDPASSRKEQPMLYEMVEKALEILSKDDEPFFLMVEGSQIDWEAHDNDIYGVWKEVVEFDKAVQVALDFALKRGDTLVIVTADHETGGLGLSSGDYRVDVDKIRNFKKTTDWIMANYSPKDREKFKKAIEEYFGLTLSDEDLNRISMSKNPKIELGRILGEKVSVGWTTTTHSGTPVPIFAFGPGAENFTGFLDNTEIPRIIMKLTGYSLQYPLLKEPVTK | not soluble
MGSDKIHHHHHHDNDWVDQSRNPDVIAPDAYASFSINIPHASKTRAVSTDPGIAAENTVKSLHVFIYDAESPNTPTVAEFTVAGGTLTQKPAGSSTWMTSQPISTKKTDKYIFAGVNLNAEIVNYITSNGLGAFSYKDFTQEITKLADQTNGFVMFNSAYPTLTPAADLYEKKSEAENNHITISVNRVTAKAAVFQSQSFVVNGGGTMTDLKFGWRNLNKKFYFIQDNRDALIKDYNWANYTAEDFTRGTDAINVYASADVPTSFSYATENAFQYISGTSNVDAATFISVSGVFTPTNIISAKKNPPTVAADFEIIVNPKPVDKTFFVVRTADGVANYFIDGPTAEKFAELCAANTPQMPSINGIYLLSENTYSNGLCYYHIFVNGDAVTPQAPYNIYRNQYFKININSIQAPGNPSDNFDRGEPIKPNSWIGVDIQIIPWEVIEEDHDL | not soluble
MGSDKIHHHHHHDWLDLNTTSSVETGQAIVTLDDAQIALNGIYRLASGHSYYGDNYWYYGDCRAADVQARITKGDGKRVSPYYEYNVLASDNLNIVLPWNTVYKVIRQTNNLIQKIESGSIQSSDTKELNRIKSEALVMRGLSLFNLTRLFGMPYTNDKGASLGVPIETSPSDPTHKPSRSTVAQCYEQVVSDMSNALSGLRQETSNGYINYWAAQALLSRVYLNMGEYQKAYDAATDVIKNNGGRYQLYSYEEYPNVWGQDFQSESLFELYITLSEPSGGTGGEGAPMVYANEATVDWNNLILSEDFLNLLNEDPKDVRHCLTKESVIENNTGLPAAAMHEKVYLAKFPGKTGDDPKTNNICIIRLSEVYLNAAEAGLKKGTDIEEAQGYLNDIISRRTTDTSQQVSTETFTLDRILKERRKELVGEGEVFYDYLRNGLAIERKGSWHLETLKASNAQKIEATDLRIALPIPQSEIDANPNIQQNPR | not soluble
MGSDKIHHHHHHEEMEKGFDPKRYARELWFKLQDMMNEGLGYDAVEVLNTLDENPELAHQKFAKVVGVSNYRYYIIQGVGEIVEIKDDGILVKVRENRKVPDLFLSNHIFGNGIVNATGIAKMEDFDRIIDFNLTATELNKIVKEEVVNSFLKQLSKGAGSVGSLVRFIAVFTLLKDEEIKYPIEAIPLYLEIQGGF | soluble
MGSDKIHHHHHHETQPESAAFTAPSTDNPIRINFNENPLGMSPKAQAAARDAVVKANRYAKNEILMLGNKLAAHHQVEAPSILLTAGSSEGIRAAIEAYASLEAQLVIPELTYGDGEHFAKIAGMKVTKVKMLDNWAFDIEGLKAAVAAYSGPSIVYLVNPNNPTGTITPADVIEPWIASKPANTMFIVDEAYAEFVNDPRFRSISPMITQGAENIILLKTFSKIHAMAGMRVGYAVAHPTVIALMGRYVAGEKINFSGVDAALASMNDSAFITYSKKSNDVSRQILLKALEDLKLPYLPSEGNFVFHQLVVPLKDYQTHMADAGVLIGRAFPPADNWCRISLGTPQEMQWVADTMREFRKKSWI | not soluble
MGSDKIHHHHHHGADVETPSVSISVSPENPKVGEEVTVTINTDAQYLTLFTGDEGKNFERSRIKAIMEHDWDSFYEECYRVSYAKNGEKTLFYKYFKDYQSIEDVKKDFEFFGAIDNIQLVPYKKGDFPEALMEMSYIGTNQLKFTVTDRRIPSGIRMKPNIHIFGGLANQPGNTIIESRFVACDADRAIRKYSNDAWVAAYFGLHTEQLEDFQGYSAGYKYYTFQDERSYGAFQTNDPLSRRPTEGFYKLGDMYNRDTYLQPFLDHGEKIILRQVDMYVNGRSTFVAADDSPYKYDLDGDGVLESYECELDPATGLPVHEADYTKYKGFQGDVYLSFIEMGTDEYEPWNTGVSLGSVYTTGGIQKTYKYIYTGAGDFTITAVATNVGDKDYKGIDYSEERSNSLDDYSHKRALSSVKVSVKP | not soluble
MGSDKIHHHHHHGCKEKDMSMKMNEPHNIKGVISYKRSFGDLNDTHLSVAKKIGIRPLASRSEAEGLGGKLVQIKPCERYAMDSLTHSIPFLIPQASALLDTIGANFLDSLSCKGLNPNQIIVTSVLRTADDVKRLRRRNGNASANSAHAFGTTFDVSYRRFCKVEDPDGRPMQDVSPDTLKLVLAEVLRDLRKSDKCYIKYELKQGCFHITAR | not soluble
MGSDKIHHHHHHKAVPLASINGEWNIIEVNGSKVTPGESRTLPFITFDTATGRVSGNSGCNRMMGSFDVNAKPGSMELKGMASTRMMCPDMTTERNVLGALAQVKGYKKAGKDKMFLCNESNRPVVVLEKKEADVKLSVLNGEWKIKEVNGEAITSGMEKQPFIAFDVKKKTLHGNAGCNLINGGFETSTTNAKSISFPGVASTMMACPDMEVEGKILKAMNEVKSFDKLSGGGIGLYDANNALVIVLEK | not soluble
MGSDKIHHHHHHKDLLGREVEIPSNVNRIVAVGPGALRLIAYLKATDMVVGVEDFEKLRPYGRPYILAYPELKKLPSVGPGGPGKLPDLESLITLQPDVVFITYVDRKTAKDIQEKTGIPVVVLSYGNLGTFEDEDLFRSIELAGKILGREERAHEVVDFIRKAQEDLVTRSEGVESPTVYVGGIGYKGAHGIDSTEAKYPPFVVLHARNVVDELGEGHKFIDPEKLLVWNPEYIFIDENGLSLVLDDYSKHREFYESLSAVKRGKVYGILPYNYYTTNIGTALADAYFIGKVLYPERFTDIDPEEKADEIYEFLLGKRVYGEMAEQFGGFGKIDLPSGRILRGTW | not soluble
MGSDKIHHHHHHKPGREFYASDIRESMEKGDKLAILMVHFGSAYPEARTQVLDVMNKRVKEAFPDVEVRQAYSARSVVSRLRAQGVWVQLPADALVELRDQGFTHVIIQPTIIIEGVEMEAIRKEAEQRKGLFKDLRVGNPLLYDDADYEAVMKAVSSPSGVTKNGAKLLVAHGTYHASNSAYAKLGYMFQTKGMKDYYTGTREGFPTIENVGEQMRQAGHKRVQLIPFMFVLIRGTENTVTDFWQKGLRQQGFDVDIYLKPLGENPAIRSLFIDHIRFAMKYKRATIFDRKKLYTH | not soluble
